Experimental findings from PMC3429342 are described below.

Common to all, as to test: AUC
The target of assay [1] is Dscam1 3C.31.8 fragment containing the N-terminal 8 Ig domains (Drosophila melanogaster).
For assay [2], the target named is Dscam1 4C.31.8 fragment containing the N-terminal 8 Ig domains (Drosophila melanogaster).
Assay [3] deals with Dscam1 11C.27.25 fragment containing the N-terminal 8 Ig domains (Drosophila melanogaster).
In assay [4] the target is Dscam1 10C.27.25 fragment containing the N-terminal 8 Ig domains (Drosophila melanogaster).
Assay [5] deals with Dscam1^3.31.8 fragment containing the N-terminal 8 Ig domains (Drosophila melanogaster).
For assay [6], the target named is Dscam1^10.27.25 fragment containing the N-terminal 8 Ig domains (Drosophila melanogaster).

What is called Kd is the concentration at which binding is half-saturated. Turning to “Dscam1 3C.31.8 fragment containing the N-terminal 8 Ig domains (domain or fragment)”, the Kd was more than 500 µM in assay [1] and 0.99 µM in assay [2].

For the substance “Dscam1 4C.31.8 fragment containing the N-terminal 8 Ig domains (domain or fragment)”, in assay [2], the Kd was more than 500 µM.

On to “Dscam1 10C.27.25 fragment containing the N-terminal 8 Ig domains (domain or fragment)”, for which the Kd in assay [3] is 4.6 µM; in assay [4], more than 500 µM.

For the substance “Dscam1 11C.27.25 fragment containing the N-terminal 8 Ig domains (domain or fragment)”, the equilibrium dissociation constant (Kd) in assay [3] was more than 500 µM.

The term stoichiometry N denotes a count of units in the complex or per binding partner. On to “Dscam1^3.31.8 fragment containing the N-terminal 8 Ig domains (domain or fragment)”, for which, in assay [5], the Kd was 2.12 µM and the stoichiometry N worked out at 2.

Consider “Dscam1^10.27.25 fragment containing the N-terminal 8 Ig domains (domain or fragment)”, for which, in assay [6], the Kd worked out at 1 µM and the stoichiometry N amounted to 2.
